Assay results from patent US20090155236A1, “Peptide sequence for modulation of delta protein kinase c” (NATIONAL INSTITUES OF HEALTH (NIH), U.S. DEPT OF HEALTH AND …, priority 2004, published 2009).

Columns and labels:
delta PKC = delta PKC (Rattus norvegicus, UniProt P09215); assay: ELISA of annexin V peptide variants fused to alkaline phosphatase on immobilized delta PKC; type: binding; set-up: key to Binding: +++: Relative binding is shown in Table 1 by “+” and “−” indicators; ++: Relative binding is shown in Table 1 by “+” and “−” indicators; Relative binding is shown in Table 1 by “+” and “−” indicators; Relative binding is shown in Table 1 by “+” and “−” indicators; −−−: Relative binding is shown in Table 1 by “+” and “−” indicators; details: Table 1; for Binding: relative binding of peptide-alkaline phosphatase fusion to immobilized delta PKC
Description: Binding of the annexin V peptide (SEQ ID NO: 1) and of variants of the peptide to delta PKC was examined using an ELISA protocol, detailed in Example 6. Delta PKC (SEQ ID NO:3) was immobilized in the wells of a microtiter plate and then incubated with the annexin V peptide conjugated to alkaline phosphatase or with variants of the annexin V peptide, also conjugated to alkaline phosphatase.
Recombinant delta PKC protein (SEQ ID NO:3) was bound to a Falcon plate for 1 hour at room temperature in carbonate buffer pH 9.6. A 1:10-1:100 dilution of PKC enzyme from glycerol stock or 100 μg was prepared. β-mercaptoethanol at 1 μL/mL was added into the PKC. Each well contained approximately 100 μL of PKC; some wells without PKC were present to correct for non-specific binding.
Next, all wells were blocked with 200 μL of super block or 0.5% milk in carbonate buffer. Blocking was done twice, for 5 minutes each time.
Without washing the wells, 100 μL of a peptide fused to alkaline phosphatase protein (i.e., peptide-alkaline phosphatase fusion) was added to the wells, and incubated for 30 minutes at 37° C. The wells were then washed three times, for 2 minutes each time, with TBS/Tween (0.1%). The wells were allowed to develop overnight before reading absorbance at 405 nm.

[1] = biological target: T1, annexin V and delta PKC interaction (Homo sapiens, UniProt Q05655); assay: Cross-linking immuno-precipitation of delta PKC probed with anti-annexin V in cardiac myocytes; type: cell-based
T1 construct: endogenous in cells; host or cells: cardiomyocytes
Description: Example 4 describes a study where cardiac myocytes were stimulated with a selected agent and then immuno-precipitated with anti-delta PKC after cross-linking. The cell lysates were then probed with anti-annexin V and visualized with ECL Western blotting. […] The stimulation agent was applied to the cells for times of between 30 seconds to 20 minutes, prior to lysing.
Cardiomyocytes were treated with phorbol 12-myristate 13-acetate (PMA; 10 nM), hydrogen peroxide (H2O2; 5 mM), JTV-519, or delta V1-1 peptide (1 μM) and JTV-519 (1 μM), for times of between 30 seconds to 5 minutes. After the lapsed time, the cells were washed with cold PBS, and homogenized on ice with trituration in homogenization buffer (20 mM Tris pH 7.4, 2 mM EDTA, 10 mM EGTA, 0.25M sucrose, 12 mM O-mercaptoethanol, and protease inhibitor cocktail (Sigma), 0.1% formaldehyde. After 30 min at 4° C., the lysates were quenched with 0.14M glycine for 20 min at 4° C., and samples spun at 14K rpm at 4° C. The supernatant was incubated with 1 μg anti-delta PKC antibody (Santa Cruz Biotechnology, Inc., Santa Cruz, Calif.) for 1 hour, then with proteinG beads (Invitrogen Corporation) for 3 hours at 4° C. The beads where then washed with wash buffer (20 mM Tris pH 7.5, 2 mM EDTA, 100 mM NaCl, 12 mM β-mercaptoethanol, 0.1% Triton), and separated on 7.5% SDS-PAGE, transferred to nitrocellulose, and probed with anti-annexin V (Santa Cruz Biotechnology, Inc., Santa Cruz, Calif.), followed by visualization by ECL Western blotting.

[2] = biological target: T2, delta PKC/annexin V interaction (Cricetulus griseus, UniProt A0A8C2N0P5); assay: Cross-linking co-immunoprecipitation of annexin V and delta PKC in CHO cells; type: cell-based
T2 construct: endogenous in cells; host or cells: CHO cells
Description: A similar study was conducted to further evaluate the in vitro, intracellular interactions of delta PKC and annexin V. Cellular interactions of delta PKC/annexin V interaction in CHO cells were stabilized with a cross-linking agent, after stimulation with 10 nM PMA. The complexes formed with delta PKC were then immuno-precipitated and tested for the presence of annexin V. The SDS-PAGE gel is shown in FIG. 6A and a corresponding graph quantifying percent association of annexin V and delta PKC as a function of time is shown in FIG. 6B. […] The interaction is relatively short-lived, and the proteins disassociated after 1 minute of stimulation.
The effect of JTV-519, an activator of delta PKC, on the association of annexin V and delta PKC was also evaluated in this study. Cells were treated with JTV-519, and the association of annexin V and delta PKC was examined using the co-immunoprecipitation procedure described above. […] PMA caused the disassociation of the JTV-induced complex at 30 seconds, the time of maximal PMA-induced association. […] Whereas the cytosolic fraction of the cells contained a steady low level of the complex, the majority of the complex was found in the particulate fraction of the cells, and disappearance from the particulate fraction followed the same time-course as observed in whole cell lysates (compare FIG. 6D bottom panel with FIG. 6B).

[3] = biological target: T3, delta PKC-annexin V complex (Cricetulus griseus, UniProt A0A8C2N0P5+G3I5A4); assay: Dissociation of delta PKC-annexin V complex in CHO cells; type: cell-based; details: CHO cells pretreated with the agent, then 10 nM PMA, FIG. 7
T3 construct: endogenous in cells; host or cells: CHO cells
Description: To determine the requirements for complex disassociation and subsequent translocation, PMA-induced formation of the delta PKC-annexin V complex was conducted under energetically limiting conditions caused by ATP depletion using 2-deoxyglucose (Kondo, T. et al., J. Lab. Clin. Med., 94:617-23 (1979)), and with cytoskeletal perturbations by pretreatment with actin […] agent cytochalasin D or microtubule-destabilizing agent nocodazole.
CHO cells were pretreated with one of the following: (1) 2-deoxyglucose (20 mM) for 4 hours in a glucose-free buffer; (2) nocodazole (10 μM) for 2 hours; or (3) cytochalasin D (2 μM) for 1 hour. The cells were then treated with phorbol myristate acetate (PMA; 10 nM) for times of between 30 seconds to 5 minutes. After the lapsed time, the cells were washed with cold PBS, and homogenized on ice with trituration in homogenization buffer (20 mM Tris pH 7.4, 2 mM EDTA, 10 mM EGTA, 0.25M sucrose, 12 mM β-mercaptoethanol, and protease inhibitor cocktail (Sigma), 0.1% formaldehyde. After 30 min at 4° C., the lysates were quenched with 0.14M glycine for 20 min at 4° C., and samples spun at 14K rpm at 4° C. The supernatant was incubated with 1 μg anti-delta PKC antibody (Santa Cruz Biotechnology, Inc., Santa Cruz, Calif.) for 1 hour, then with proteinG beads (Invitrogen Corporation) for 3 hours at 4° C. The beads where then washed with wash buffer (20 mM Tris pH 7.5, 2 mM EDTA, 100 mM NaCl, 12 mM β-mercaptoethanol, 0.1% Triton), and separated on 7.5% SDS-PAGE, transferred to nitrocellulose, and probed with anti-annexin V (Santa Cruz Biotechnology, Inc., Santa Cruz, Calif.), followed by visualization by ECL Western blotting.

isolated rat hearts = assay: Ex vivo ischemia/reperfusion in isolated rat hearts; details: administered after ischemia during the initial 10 minutes of reperfusion
Description: The physiologic impact of disruption of the delta PKC-annexin V complex was evaluated in an ex vivo ischemia/reperfusion study using the annexin V peptide, TAT-AnxV, and its mutant, TAT-AnxV(R→E). As described in Example 7, isolated rat hearts were treated with TAT-AnxV or TAT-AnxV(R→E) for 10 minutes prior to induction of an ischemic episode. The ischemic episode lasted for 30 minutes, at which time flow to the heart was returned for 60 minutes (reperfusion). After the reperfusion period, cardiac effluent was collected and analyzed for creatine phosphokinase (CPK). The hearts were stained and visually inspected for live and dead tissue. Infarct size was measured by taking the average of the dead (white) tissue on both sides of the tissue slice.
A similar study was conducted, except rather than pretreating the isolated hearts with the annexin V peptide, the peptide was administered after the ischemic event and during the initial 10 minutes of the reperfusion period. Hearts were similarly treated with the mutant peptide, TAT-AnxV(R→E).
Rats were anesthetized and their hearts were rapidly removed and cannulated via the aorta for retrograde perfusion (Colbert, M. et al., J. Clin. Invest., 100:1958 (1997)). The hearts were left untreated, or were pretreated with the annexin V peptide, conjugated to TAT, (TAT-AnxV, SEQ ID NO:29) or with its mutant, TAT-AnxV(R→E) (SEQ ID NO:31), for 10 minutes prior to a 30 minutes of ischemia. Ischemia was induced by interrupting flow for 30 minutes and then reestablishing flow for 60 minutes (reperfusion). Cardiac effluent was collected for 15 minutes after reperfusion and assayed for creatine phosphokinase (CPK) using a Sigma kit. Hearts were stained with 2,3,5-triphenyltetrazolium chloride ([…]) to visualize live tissue (red) and dead tissue (white), and infarct size was measured by taking the average of the white area on both sides of the tissue slice (n=3, p<0.05). Results are shown in FIGS. 9A-9B and FIGS. 10A-10B.

[4] = cardiac myocytes stimulated with the agent, FIG. 5

T1 sequence (Q05655 whole entry): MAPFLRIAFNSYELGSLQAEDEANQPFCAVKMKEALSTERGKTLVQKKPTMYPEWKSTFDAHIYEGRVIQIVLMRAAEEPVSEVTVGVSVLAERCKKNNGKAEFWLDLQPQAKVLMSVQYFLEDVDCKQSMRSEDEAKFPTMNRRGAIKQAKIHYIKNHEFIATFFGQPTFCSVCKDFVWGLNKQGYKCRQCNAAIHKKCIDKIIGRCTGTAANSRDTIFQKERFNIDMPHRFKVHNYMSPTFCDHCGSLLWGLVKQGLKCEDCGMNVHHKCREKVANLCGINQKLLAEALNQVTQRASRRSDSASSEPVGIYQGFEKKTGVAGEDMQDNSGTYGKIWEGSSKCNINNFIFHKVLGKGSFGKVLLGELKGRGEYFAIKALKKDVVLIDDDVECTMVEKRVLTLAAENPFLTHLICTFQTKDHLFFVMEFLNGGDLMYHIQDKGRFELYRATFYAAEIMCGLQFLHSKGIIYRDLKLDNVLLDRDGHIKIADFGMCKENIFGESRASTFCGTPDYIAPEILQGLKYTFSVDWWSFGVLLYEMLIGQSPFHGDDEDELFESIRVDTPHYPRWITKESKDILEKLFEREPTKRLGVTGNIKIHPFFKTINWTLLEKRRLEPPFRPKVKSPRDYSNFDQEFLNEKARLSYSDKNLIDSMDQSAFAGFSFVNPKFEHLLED
delta PKC, sequence (P09215 with tags, fused parts or gaps with the stated changes limits assumed): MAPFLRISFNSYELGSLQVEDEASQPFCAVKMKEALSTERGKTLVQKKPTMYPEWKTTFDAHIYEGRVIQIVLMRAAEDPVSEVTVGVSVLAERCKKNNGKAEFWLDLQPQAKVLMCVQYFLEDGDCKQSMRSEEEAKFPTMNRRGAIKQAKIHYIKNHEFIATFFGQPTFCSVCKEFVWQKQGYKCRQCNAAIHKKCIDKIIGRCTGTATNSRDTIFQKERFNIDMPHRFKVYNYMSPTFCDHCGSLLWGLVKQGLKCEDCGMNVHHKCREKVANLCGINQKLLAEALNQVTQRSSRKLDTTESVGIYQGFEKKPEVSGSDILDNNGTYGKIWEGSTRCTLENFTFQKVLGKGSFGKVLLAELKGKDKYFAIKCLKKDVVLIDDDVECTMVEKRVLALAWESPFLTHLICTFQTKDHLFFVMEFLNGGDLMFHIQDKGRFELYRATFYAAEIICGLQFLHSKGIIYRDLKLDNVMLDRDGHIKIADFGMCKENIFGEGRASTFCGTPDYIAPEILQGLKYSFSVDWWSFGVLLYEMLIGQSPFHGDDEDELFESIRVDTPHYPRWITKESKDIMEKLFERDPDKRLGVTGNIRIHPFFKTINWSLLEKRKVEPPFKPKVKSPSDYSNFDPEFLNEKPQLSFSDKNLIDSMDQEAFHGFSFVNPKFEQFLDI
T3 sequence (A0A8C2N0P5 1-676): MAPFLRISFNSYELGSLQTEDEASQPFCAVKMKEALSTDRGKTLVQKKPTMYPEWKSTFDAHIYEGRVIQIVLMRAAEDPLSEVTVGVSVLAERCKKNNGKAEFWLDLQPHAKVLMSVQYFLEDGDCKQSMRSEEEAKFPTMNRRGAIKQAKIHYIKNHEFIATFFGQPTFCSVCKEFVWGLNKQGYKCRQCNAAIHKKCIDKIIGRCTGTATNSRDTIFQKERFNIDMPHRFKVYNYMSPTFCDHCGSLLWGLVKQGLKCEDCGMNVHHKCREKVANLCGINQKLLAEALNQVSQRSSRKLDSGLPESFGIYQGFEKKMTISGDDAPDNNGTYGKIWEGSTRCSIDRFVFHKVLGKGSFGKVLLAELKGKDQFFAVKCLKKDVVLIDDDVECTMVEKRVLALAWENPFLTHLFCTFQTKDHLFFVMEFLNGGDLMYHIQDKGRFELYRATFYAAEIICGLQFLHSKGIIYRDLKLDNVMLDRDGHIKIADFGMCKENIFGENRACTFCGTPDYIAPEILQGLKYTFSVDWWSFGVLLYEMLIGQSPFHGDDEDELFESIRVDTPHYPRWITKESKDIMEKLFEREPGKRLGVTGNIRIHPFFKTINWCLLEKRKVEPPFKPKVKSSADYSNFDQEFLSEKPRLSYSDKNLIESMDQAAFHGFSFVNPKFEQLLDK
T3 sequence (G3I5A4 1-321): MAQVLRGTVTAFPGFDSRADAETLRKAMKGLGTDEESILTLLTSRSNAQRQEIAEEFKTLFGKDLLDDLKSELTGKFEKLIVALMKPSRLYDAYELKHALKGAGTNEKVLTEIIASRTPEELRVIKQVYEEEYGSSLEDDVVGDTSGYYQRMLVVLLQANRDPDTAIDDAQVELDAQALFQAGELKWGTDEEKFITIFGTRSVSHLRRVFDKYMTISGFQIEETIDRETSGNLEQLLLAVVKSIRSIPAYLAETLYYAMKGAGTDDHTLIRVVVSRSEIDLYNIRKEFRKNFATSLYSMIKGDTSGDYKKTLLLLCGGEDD
T2 sequence (A0A8C2N0P5 1-676): as the sequence (A0A8C2N0P5 1-676) above
T2 sequence (G3I5A4 1-321 partner): as the sequence (G3I5A4 1-321) above

MRAAQDP (variant of SEQ ID NO1) [SEQ ID NO:14]
binding to delta PKC (delta PKC): bind to delta PKC | Binding (delta PKC): ++

MRAAEDP (variant of SEQ ID NO1) [SEQ ID NO:18]
Binding (delta PKC): ++

CCCCCCCCCCCCCC(=O)O[C@@H]1[C@@H](C)[C@@]2(O)[C@@H](C=C(CO)C[C@]3(O)C(=O)C(C)=C[C@@H]23)[C@@H]2C(C)(C)[C@]12OC(C)=O [PMA, phorbol 12-myristate 13-acetate]
interaction of annexin V and delta PKC [1, 4]: Annexin V interacts with delta PKC early after stimulation | time of stimulation after which annexin V and delta PKC disassociated ([2]; 10 nM PMA, FIGS. 6A-6B): 1 min | time to induction of annexin V and delta PKC interaction ([2]; 10 nM PMA, FIGS. 6A-6B): ≤ 30 s | cellular localization of the delta PKC-annexin V complex ([2]; soluble versus particulate fraction, FIG. 6D): maximum complex accumulation in the particulate fraction

C=C1[C@@H](C)[C@H]2[C@H](Cc3ccccc3)NC(=O)[C@]23[C@H](OC(C)=O)/C=C/[C@@](C)(O)C(=O)[C@@H](C)C/C=C/[C@H]3[C@@H]1O [cytochalasin D]
disassociation of the delta PKC-annexin V complex [3]: did not affect the profile of disassociation

COC(=O)Nc1nc2ccc(C(=O)c3cccs3)cc2[nH]1 [nocodazole]
disassociation of the delta PKC-annexin V complex [3]: substantial levels of the complex even after 5 minutes

MQAARDP (variant of SEQ ID NO1) [SEQ ID NO:12]
binding to delta PKC (delta PKC): bind to delta PKC | Binding (delta PKC): +++

OO [H2O2, hydrogen peroxide]
interaction of annexin V and delta PKC [1, 4]: stimulated delta PKC to a greater extent than exposure for 2 minutes

LQANRDPD (listed as Homo sapiens) [SEQ ID NO:1, peptide from annexin V, residues 157-164]
infarct size (isolated rat hearts; FIG. 10A): no cardioprotective effect was observed | creatine phosphokinase (CPK) released (isolated rat hearts; FIG. 10B): does not confer a cardioprotective effect

MAAAEDP (variant of SEQ ID NO1) [SEQ ID NO:17]
Binding (delta PKC): −

MRAAENP (variant of SEQ ID NO1) [SEQ ID NO:13]
binding to delta PKC (delta PKC): bind to delta PKC | Binding (delta PKC): +++

MEAAEDP (variant of SEQ ID NO1) [SEQ ID NO:15]
binding to delta PKC (delta PKC): bind to delta PKC | Binding (delta PKC): +

delta V1-1 peptide: amino acid sequence from the first variable region of delta PKC (residues 8-17); peptide inhibitor of delta PKC (SFNSYELGS; listed as Rattus norvegicus)
interaction of annexin V and delta PKC ([1]; cardiac myocytes pre-treated with the peptide for 20 minutes, then JTV-519 for 20 minutes, FIG. 5 Lane 10): blocked

O=CC[C@@H](O)[C@H](O)[C@H](O)CO [2-deoxyglucose]
disassociation of the delta PKC-annexin V complex [3]: substantial levels of the complex even after 5 minutes

MRAAADP (variant of SEQ ID NO1) [SEQ ID NO:16]
Binding (delta PKC): −−−
